In the Immune Epitope Database (IEDB) one finds Kd and IC50 data, which are given here for 12 sequences.

Test [1] concerns the target HLA-A*02:01. The test is described as follows: IEDB peptide-MHC binding, purified MHC/direct/fluorescence; filed as Kd, often an IC50 or EC50 that approximates it; ≥ and ≤ were set here for values at or beyond the usual limits of such assays. The conditions noted are these: source organism: Zaire ebolavirus.
A further test concerns the target HLA-A*29:02. Described as above.
A further test addresses HLA-A*03:01. The description is as above.
The target of another test is HLA-A*23:01. The test is described as above.
Test [2] concerns the target HLA-A*24:03. The description is as above.
The target of test [3] is HLA-A*02:01. The test is described as follows: IEDB peptide-MHC binding, purified MHC/competitive/fluorescence; ≥ and ≤ were set here for values at or beyond the usual limits of such assays. The conditions noted are these: source organism: Sudan ebolavirus.
The next test deals with HLA-B*08:01. The test is described as above. The conditions noted are these: source organism: Sudan ebolavirus.
A further test concerns the target HLA-A*26:01. Description: IEDB peptide-MHC binding, purified MHC/competitive/fluorescence; filed as Kd, often an IC50 or EC50 that approximates it; ≥ and ≤ were set here for values at or beyond the usual limits of such assays.
Another test concerns the target HLA-B*27:03. Described as above.
Test [4] deals with HLA-B*15:01. The test is described as above.
The target in another test is HLA-B*15:17. Described as above.
For test [5], the target named is HLA-A*69:01. The test is described as above.
Another test deals with HLA-B*57:01. The test is described as above.
A further test has as its target HLA-B*46:01. The description is as above.
For a further test, the target named is HLA-B*51:01. The description is as above.
A further test has as its target HLA-B*18:01. Described as above.
For a further test, the target named is HLA-C*14:02. The test is described as follows: IEDB peptide-MHC binding, purified MHC/direct/fluorescence; filed as Kd, often an IC50 or EC50 that approximates it; ≥ and ≤ were set here for values at or beyond the usual limits of such assays.
The target of another test is HLA-B*48:01. Described as above. The conditions noted are these: source organism: Mycobacterium tuberculosis str. Haarlem.
The target of another test is HLA-A*02:12. The description is as above.
The target of another test is HLA-A*02:16. The description is as above.
Another test deals with HLA-A*02:19. The description is as above.
In a further test the target is HLA-B*58:01. The test is described as follows: IEDB peptide-MHC binding, purified MHC/competitive/fluorescence; filed as Kd, often an IC50 or EC50 that approximates it; ≥ and ≤ were set here for values at or beyond the usual limits of such assays.
Test [6] addresses HLA-B*39:01. The test is described as above.
For test [7], the target named is HLA-B*15:01. The test is described as follows: IEDB peptide-MHC binding, purified MHC/direct/fluorescence; filed as Kd, often an IC50 or EC50 that approximates it; ≥ and ≤ were set here for values at or beyond the usual limits of such assays.
The target in another test is HLA-B*35:01. The test is described as follows: IEDB peptide-MHC binding, purified MHC/competitive/fluorescence; filed as Kd, often an IC50 or EC50 that approximates it; ≥ and ≤ were set here for values at or beyond the usual limits of such assays. The conditions noted are these: source organism: Mycobacterium tuberculosis H37Rv.
In another test the target is HLA-A*68:02. Description: IEDB peptide-MHC binding, purified MHC/direct/fluorescence; filed as Kd, often an IC50 or EC50 that approximates it; ≥ and ≤ were set here for values at or beyond the usual limits of such assays.
The target in another test is HLA-A*02:03. The description is as above.
Test [8] concerns the target HLA-A*02:01. The test is described as follows: IEDB peptide-MHC binding, purified MHC/competitive/fluorescence; filed as Kd, often an IC50 or EC50 that approximates it; ≥ and ≤ were set here for values at or beyond the usual limits of such assays.
For test [9], the target named is HLA-A*24:03. Described as above.
A further test addresses HLA-C*12:03. Description: IEDB peptide-MHC binding, purified MHC/direct/fluorescence; filed as Kd, often an IC50 or EC50 that approximates it; ≥ and ≤ were set here for values at or beyond the usual limits of such assays. The conditions noted are these: source organism: Zaire ebolavirus.
Test [10] has as its target HLA-A*69:01. Described as above. The conditions noted are these: source organism: Francisella tularensis subsp. holarctica LVS.
A further test deals with HLA-C*06:02. Described as above.
The target in the next test is HLA-A*31:01. Description: IEDB peptide-MHC binding, purified MHC/competitive/fluorescence; filed as Kd, often an IC50 or EC50 that approximates it; ≥ and ≤ were set here for values at or beyond the usual limits of such assays. The conditions noted are these: source organism: Francisella tularensis subsp. tularensis FSC198.
Test [11] has as its target HLA-B*39:01. The test is described as follows: IEDB peptide-MHC binding, purified MHC/direct/fluorescence; filed as Kd, often an IC50 or EC50 that approximates it; ≥ and ≤ were set here for values at or beyond the usual limits of such assays. The conditions noted are these: source organism: Influenza A virus (A/mallard/Norway/685/05(H9N2)).
Another test concerns the target HLA-A*02:11. The description is as above. The conditions noted are these: source organism: Zaire ebolavirus.
Where [12] appears, read: source organism: Zaire ebolavirus.
[13] abbreviates: source organism: Limestone Canyon virus.
Where [14] appears, read: source organism: Four Corners hantavirus.
Setting [15] is: source organism: Araucaria virus.
Setting [16] is: source organism: Rickettsia felis URRWXCal2.
[17] abbreviates: source organism: Rickettsia sibirica 246.
Setting [18] is: source organism: Francisella tularensis subsp. tularensis FSC198.

In the case of FLYDRLAST, the Kd (in general, the concentration at which binding is half-saturated) was 0.0022 µM in the test with HLA-A*02:01 [1]; not below 20 µM with HLA-A*29:02 (setting [12]); not below 20 µM with HLA-A*03:01 (setting [12]); not below 20 µM with HLA-A*23:01 (setting [12]); not below 20 µM with HLA-A*24:03 [2] (setting [12]); not below 20 µM in the test with HLA-A*26:01 (setting [12]). In addition, the Kd with HLA-B*27:03 (setting [12]), in the test with HLA-B*15:01 [4] (setting [12]), with HLA-B*15:17 (setting [12]), with HLA-A*69:01 [5] (setting [12]), with HLA-B*57:01 (setting [12]) and with HLA-B*46:01 (setting [12]) was not below 20 µM each time. The Kd with HLA-B*51:01 (setting [12]) and with HLA-B*18:01 (setting [12]) was not below 20 µM throughout. In addition, the figures for the IC50 with HLA-A*02:01 [3] and with HLA-B*08:01 were 0.887 µM and 40.6 µM, respectively.

In the case of AAAAFEAAL, the Kd with HLA-C*14:02 (source organism: Burkholderia orbicola) turned out to be 0.166 µM; with HLA-B*48:01, 0.175 µM.

Consider KSAFYQSYL, for which the Kd with HLA-A*29:02 (setting [13]), with HLA-A*03:01 (setting [13]), with HLA-A*02:12 (setting [13]), with HLA-A*02:16 (setting [13]), with HLA-A*02:19 (setting [13]) and in the test with HLA-A*26:01 (setting [14]) was not below 20 µM throughout. Further, the Kd was not below 20 µM with HLA-B*27:03 (setting [14]); not below 20 µM with HLA-B*15:01 [4] (setting [14]); not below 20 µM with HLA-A*69:01 [5] (setting [14]); not below 20 µM in the test with HLA-B*46:01 (setting [14]); 0.0021 µM with HLA-B*58:01 (setting [14]); not below 20 µM in the test with HLA-B*39:01 [6] (setting [14]). The sequence further yielded a Kd with HLA-B*18:01 (setting [14]) not below 20 µM.

As to AMAAAAAPY, the Kd with HLA-B*15:01 [7] (source organism: Mycobacterium tuberculosis variant bovis BCG str. Pasteur 1173P2) worked out at 0.294 µM; with HLA-C*14:02 (source organism: Mycobacterium tuberculosis H37Rv), 0.094 µM; with HLA-B*35:01, 0.0083 µM.

In the case of STVADEIAF, the Kd with HLA-B*58:01 (source organism: Escherichia coli E22) turned out to be 1.78 µM.

For LYVAGVPEL, the Kd with HLA-A*68:02 (setting [15]), with HLA-A*02:03 (setting [15]), in the test with HLA-A*29:02 (setting [15]), in the test with HLA-A*03:01 (setting [15]), with HLA-A*02:12 (setting [15]) and with HLA-A*02:16 (setting [15]) was not below 20 µM each time. Moreover, the Kd with HLA-A*02:19 (setting [15]), with HLA-A*26:01 (setting [15]), in the test with HLA-A*02:01 [8] (setting [15]), with HLA-B*27:03 (setting [15]), with HLA-B*15:17 (setting [15]) and in the test with HLA-A*69:01 [5] (setting [15]) was not below 20 µM throughout. In addition, the Kd with HLA-B*57:01 (setting [15]) is not below 20 µM; in the test with HLA-B*46:01 (setting [15]), not below 20 µM; in the test with HLA-A*24:03 [9] (setting [15]), 0.0003 µM; with HLA-B*39:01 [6] (setting [15]), not below 20 µM; with HLA-B*51:01 (setting [15]), not below 20 µM; with HLA-B*18:01 (setting [15]), not below 20 µM.

With GYTVARSQL, the Kd in the test with HLA-A*23:01 (setting [16]) worked out at 0.466 µM; with HLA-A*24:03 [2] (setting [16]) it was 0.022 µM.

Regarding IMYDHLPGF, the Kd with HLA-A*68:02 (setting [12]), in the test with HLA-A*02:03 (setting [12]), with HLA-A*03:01 (setting [12]), in the test with HLA-A*02:12 (setting [12]), with HLA-A*02:16 (setting [12]) and in the test with HLA-A*02:19 (setting [12]) was not below 20 µM each time. Further, the Kd in the test with HLA-C*12:03 is 0.306 µM; in the test with HLA-A*26:01 (setting [12]), not below 20 µM; with HLA-A*02:01 [8] (setting [12]), not below 20 µM; in the test with HLA-B*27:03 (setting [12]), not below 20 µM; with HLA-A*69:01 [5] (setting [12]), not below 20 µM; with HLA-B*57:01 (setting [12]) it was not below 20 µM. Also, the Kd in the test with HLA-B*58:01 (setting [12]) is 0.0731 µM; in the test with HLA-B*39:01 [6] (setting [12]) it was not below 20 µM; in the test with HLA-B*18:01 (setting [12]) it was not below 20 µM.

Turning to MFSVYDYGF, the Kd with HLA-A*23:01 (setting [17]) and with HLA-A*24:03 [2] (setting [17]) was 0.003 µM in each case.

For KYYIYRLYF, the Kd with HLA-A*69:01 [10] is not below 20 µM; in the test with HLA-C*06:02 (setting [18]), not below 20 µM; in the test with HLA-A*31:01 it was not below 20 µM; in the test with HLA-A*24:03 [9] (setting [18]), 0.0008 µM.

In the case of HRTLLMNEL, the Kd in the test with HLA-C*06:02 (source organism: Influenza A virus (A/nt/60/1968(H3N2))) and with HLA-B*39:01 [11] was not below 20 µM throughout.

ISSGETRSF: the Kd in the test with HLA-A*68:02 (setting [12]) is not below 20 µM; with HLA-A*02:03 (setting [12]), not below 20 µM; in the test with HLA-B*15:01 [7] (source organism: Nitrococcus mobilis Nb-231) it was 3.6 µM; with HLA-A*29:02 (setting [12]), not below 20 µM; with HLA-A*03:01 (setting [12]), not below 20 µM; in the test with HLA-A*02:12 (setting [12]), not below 20 µM. Also, the Kd with HLA-A*02:16 (setting [12]), in the test with HLA-A*02:19 (setting [12]), in the test with HLA-A*02:11, with HLA-A*26:01 (setting [12]), with HLA-A*02:01 [8] (setting [12]) and with HLA-B*27:03 (setting [12]) was not below 20 µM each time. Besides, the Kd with HLA-A*69:01 [5] (setting [12]) is not below 20 µM; with HLA-B*57:01 (setting [12]), not below 20 µM; with HLA-B*46:01 (setting [12]) it was not below 20 µM; with HLA-B*58:01 (setting [12]) it was 0.351 µM; with HLA-B*39:01 [6] (setting [12]), not below 20 µM; in the test with HLA-B*51:01 (setting [12]), not below 20 µM. In the test with HLA-B*18:01 (setting [12]), this sequence displayed a Kd not below 20 µM.
